For one data set, the system named is Arg183. Nature of the data set: kinetics. The settings on record: ferric heme enzyme, chlorite turnover (inferred from context); cited from earlier work.
Substrate in data set [1]: [O-][Cl+]O
Nature of the data set: Clark-type O2 electrode, initial rates, Michaelis-Menten. The format is biochemical, Nitrospira defluvii. As to conditions: pH 7.0, 50 mM phosphate, 30 °C, 50 nM enzyme, NaClO2 10-1000 μM.

These results are taken from article PMC4029776, “Transiently Produced Hypochlorite Is Responsible for the Irreversible Inhibition of Chlorite Dismutase” (Biochemistry, 2014).

Turning to “Chlorite dismutase (DaCld) (Dechloromonas aromatica)”, in the data set on Arg183, the pKa result is recorded as “∼pH 6.5”.

B1: NdCld (chlorite dismutase from "Candidatus Nitrospira defluvii") (Nitrospira defluvii) (protein)
chain: ADREKLLTESGVYGTFATFQMDHDWWDLPGESRVISVAEVKGLVEQWSGKILVESYLLRGLSDHADLMFRVHARTLSDTQQFLSAFMGTRLGRHLTSGGLLHGVSKKPTYVAGFPESMKTELQVNGESGSRPYAIVIPIKKDAEWWALDQEARTALMQEHTQAALPYLKTVKRKLYHSTGLDDVDFITYFETERLEDFHNLVRALQQVKEFRHNRRFGHPTLLGTMSPLDEILEKFAQ
With B1, in data set [1], the Michaelis constant (Km) came out at 138 ± 20 µM and the kcat was 83 ± 4 s^–1.
